Data taken from patent publication US20100279930A1 (published 2010).

Target: T1, human Y4 receptor (human, UniProt P50391 1-375)
Experiment: 125I-PP displacement

T1 sequence (P50391 whole entry): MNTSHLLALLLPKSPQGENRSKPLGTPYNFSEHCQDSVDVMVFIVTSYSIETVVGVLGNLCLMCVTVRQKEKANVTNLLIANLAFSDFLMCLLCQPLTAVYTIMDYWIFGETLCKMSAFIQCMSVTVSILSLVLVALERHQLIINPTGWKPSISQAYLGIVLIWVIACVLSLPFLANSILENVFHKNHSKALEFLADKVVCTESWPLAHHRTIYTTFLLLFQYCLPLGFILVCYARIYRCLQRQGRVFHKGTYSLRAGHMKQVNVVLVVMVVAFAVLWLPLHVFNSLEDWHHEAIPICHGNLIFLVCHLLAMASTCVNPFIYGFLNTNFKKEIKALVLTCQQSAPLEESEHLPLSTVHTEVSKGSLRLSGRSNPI

Binder | IC50 [nM]
APPEPVYPGDDATPEQMAEYVADLRRYINMLTRPRY [4055405] | 0.24
PAPLEPTYPGDDATPQQMARYAAALRRYINILTRPRY [7269] | 0.187
AAPLEPTYPGDDATPQQMARYAAELRRYINFLTRPRY [7274] | 0.107
PAPLEPTYPGDDATPQQMARYAAELRRYINILTRPRY [7271] | 0.22
PAPLEPTYPGDDATPQQMARYAAELRRYINFLTRPRY [7259] | 0.075
PAPLEPTYPGDDATPQQMAKYAAELRRYINILTRPRY [7270] | 0.171
APLEPVYPGDNATPEQMAKYAADLRRYINMLTRPRY [compound of SEQ ID NO:224 (Lys 19, code 4055291)] | 0.32
APLEPVYPGDNATPEQMAQYAADLRRYINLLTRPRY [4055399] | 0.28
APLEPVYPGDDATPEQMAQYAAELRRYINMLTRPRY [4055195] | 0.86
APLEPVYPGDNATPEQMAHYAADLRRYINMLTRPRY [4055525] | 0.11
APLEPVYPGDNATPEQMARYAAALRRYINMLTRPRY [7242] | 0.14
APLEPVYPGDNATPEQMAEYAADLRRYINMLTRPRY [4055524] | 0.3
APLEPVYPGDNATPEQMAQYAADLRRYINMLTRPMY [4054976] | 1.4
APLEPVYPGDNATPEQMAQYAADLMRYINMLTRPRY [4054981] | 0.38
APLEPVYPGDNATPEQLAQYAADLRKYINLLTRPRY [4055549] | 0.2
APLEPVYPGDDATPEQMAEYAADLRRYINMLTRPRY [4055406] | 0.17
APLEPVYPGDNATPEQMAQYAADLRRYINMLTRPHY [4054987] | 0.72
KPLEPVYPGDNATPEQMAQYAADLRRYINMLTRPRY [4055292] | 0.4
PAPLEPVYPGDNATPEQIARYAAALRRYINKLTRPRY [7244] | 0.106
PAPLEPKYPGDNATPEQMARYAAALRRYINMLTRPRY [7248] | 0.131
PAPLEPTYPGDNATPEQMARYAAALRRYINMLTRPRY [7249] | 0.089
PAPLEPTYPGDNATPEQMAKYAAELRRYINMLTRPRY [7251] | 0.096
PAPLEPVYPGDNATPEQMARYAAALRRYINKLTRPRY [7243] | 0.058
PAPLEPTYPGDNATPEQMAKYAAELRRYINFLTRPRY [7253] | 0.095
PAPLEPTYPGDDATPQQMAKYAAALRRYINILTRPRY [7268] | 0.127
APLEPVYPGDNATPEQMAQYYASLQHYLNLVTRPRY [4055246] | 0.46
APLEPVYPGDNATPEQMAQYYASLRHYLNLVTRPRY [4055245] | 0.5
APLEPVYPGDDATPQQMAQYYASLRHYLNLVTRPRY [4055247] | 0.3
APLEPVYPGDNATPEQMAQYAADLNLRYINMLTRPRY [4054990] | 0.67

Target: T1, human Y4 receptor
Experiment: 125I-PP displacement
Remark: another data set of the same source

Binder | IC50 [nM]
PAPLEPSYPGDNATPEQLAHYYSELRRYINKLTRPRY [4057781] | 0.132
AAPLEPTYPGDNATPEQMAHYYSELRRYINKLTRPRY [4057782] | 0.078
AAPLEPSYPGDNATPEQLAHYYSELRRYINKLTRPRY [4057779] | 0.071
PAPLEPHYPGDDATPQQLAHYYSELRRYINKLTRPRY [4057789] | 0.164
AAPLEPTYPGDNATPEQLAHYYSELRRYINKLTRPRY [4057784] | 0.102
PAPLEPTYPGDNATPEQMAHYYSELRRYINKLTRPRY [4057783] | 0.154
GAPLEPHYPGDDATPQQMARYAAELRRYINKLTRPRY [4057899] | 0.064
HAPLEPHYPGDNATPEQMARYAAELRRYINKLTRPRY [4057902] | 0.064
YAPLEPEYPGDDATPQQMARYAAELRRYINKLTRPRY [4058053] | 0.042
PAPLEPHYPGDDATPQQMARYAAELRRYINKLTRPRY [4057897] | 0.07
YAPLEPHYPGDDATPQQMARYAAELRRYINKLTRPRY [4058054] | 0.137
AAPLEPHYPGDNATPEQMAKYAAELRRYINKLTRPRY [4057765] | 0.075
APLEPHYPGDNATPEQMAKYAAELRRYINKLTRPRY [4057764] | 0.094
APLEPHYPGDNATPEQMAKYAAALRRYINKLTRPRY [4057754] | 0.156
APLEPHYPGDNATPEQMAKYAADLRRYINKLTRPRF [4057745] | 0.086
APLEPHYPGDDATPQQMARYAAELRRYINLLTRPRY [4058056] | 0.1

Binder | IC50 [nM]
AAPLEPHYPGDNATPEQMAKYAAALRRYINKLTRPRY [4057755] | 0.145
HAPLEPVYPGDNATPEQMAKYAADLRRYINKLTRPRY [4057879] | 0.134
AAPLEPHYPGDNATPEQMAKYYSALRRYINKLTRPRY [4057758] | 0.19
AAPLEPHYPGDNATPEQMAKYYSELRRYINKLTRPRY [4057762] | 0.167
HAPLEPHYPGDNATPEQMAKYAADLRRYINKLTRPRY [4057891] | 0.146
AAPLEPHYPGDNATPEQMAKYAADLRRYINKLTRPRF [4057746] | 0.072
PAPLEPSYPGDNATPEQMAKYAAALRRYINLLTRPRY [4058052] | 0.085
PAPLEPHYPGDNATPEQLAKYAADLRRYINKLTRPRY [4057753] | 0.07
PAPLEPHYPGDNATPEQMAKYAADLRRYINKLTRPRF [4057747] | 0.066
PAPLEPHYPGDNATPEQMAKYYSELRRYINKLTRPRY [4057763] | 0.174
AAPLEPHYPGDNATPEQLAKYAADLRRYINKLTRPRY [4057752] | 0.071
PLEPHYPGDNATPEQMARYAAELRRYINKLTRPRY [4057900] | 0.09
PLEPHYPGDDATPQQMARYAAELRRYINKLTRPRY [4057898] | 0.063
PAPLEPVYPGDNATPEELARYAAELRRYINKLTRPRY [4057769] | 0.117
PAPLEPVYPGDNASPEQMARYAAELRRYINKLTRPRY [4057770] | 0.081
